These results are taken from PMC9997659, “TLN1 contains a cancer-associated cassette exon that alters talin-1 mechanosensitivity” (The Journal of Cell Biology, 2023).

Several values for one entry are separate records, joined by “and”; a condition that tells them apart may be missing. Equal values may be shown once.

Test [1] has as its target Human talin-1 R1R2-17b (residues 482-786 + additional 17 residues of exon 17b) (human) (UniProt Q9Y490). Briefly: SEC; analytical gel filtration, Superdex 200 Increase 10/300 GL, run at room temperature; VD1 preincubated with talin R1R2 at a 3:1 ratio for 1 h at 37°C; 100 µl, 100-400 µM protein. A general note: In gel filtration, larger molecules generally elute earlier.
Test [2] addresses T1, Human talin-1 R1R2-WT (residues 482-786) (human, UniProt Q9Y490 482-786).
T1 construct: talin-1 (TLN1), human, rod domains R1 and R2, residues 482-786 of the 2,541 amino acid protein; codon optimized synthetic gene in pET151; also called wild-type R1R2; talin R1R2-WT; source: E. coli BL21(DE3)*, purified (Nickel-NTA, TEV cleavage, HiTrap Q)
Nature of the test: NMR titration; 1H,15N TROSY spectra of 100 µM R1R2 alone and with 300 µM RIAM peptide; 50 mM NaCl, 15 mM NaH2PO4, 6 mM Na2HPO4, 2 mM DTT, pH 6.5, 298K. The settings on record: both partners purified.

T1 sequence (Q9Y490 482-786): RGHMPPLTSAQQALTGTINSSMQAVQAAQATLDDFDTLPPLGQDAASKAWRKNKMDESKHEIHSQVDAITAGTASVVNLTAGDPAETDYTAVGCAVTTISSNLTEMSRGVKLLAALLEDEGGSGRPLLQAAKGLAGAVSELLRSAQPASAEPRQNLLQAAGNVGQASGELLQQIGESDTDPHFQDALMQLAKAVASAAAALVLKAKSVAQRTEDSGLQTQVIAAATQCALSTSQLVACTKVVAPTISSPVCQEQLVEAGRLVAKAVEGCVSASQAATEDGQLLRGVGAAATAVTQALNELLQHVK

“Vinculin domain 1 (VD1) (from UniProt P18206 1-258) (domain or fragment)”: the stoichiometry N (vinculin per talin) in test [1] is 2 and 3.

B1: RIAM peptide (residues 4-30) (peptide)
peptide: SEDIDQMFSTLLGEMDLLTQSLGVDTC
notes: RIAM (Rap1-effector), residues 4-30 as printed; source: synthetic peptide (GLBiochem)
Consider B1, for which the binding result in test [2] is “binds”.
